Patent JP2012100585A (dated 2012)
Values belong to the binder of their own block, whether it stands above or below them.

What was measured:
BSA [1] = biological target: T1, BSA (UniProt P02769 25-607); assay: ELISA, BSA on the plate, anti-V5 detection
T1 construct: Negative control antigen; also called BSA(陰性対照、シグマ社)

[2] = biological target: T2, 組換えヒトLOX−1タンパク質(61−273aa) (human, UniProt P78380 61-273); assay: ELISA on LOX-1 (61-273), anti-V5 detection; 4-parameter logistic fit
BSA [3] = biological target: T1, BSA; assay: ELISA, BSA on the plate
[4] = biological target: T2, 組換えヒトLOX−1タンパク質(61−273aa); assay: ELISA, LOX-1 (61-273) on the plate, HRP anti-mouse IgG detection

T1 sequence (P02769 25-607 limits assumed): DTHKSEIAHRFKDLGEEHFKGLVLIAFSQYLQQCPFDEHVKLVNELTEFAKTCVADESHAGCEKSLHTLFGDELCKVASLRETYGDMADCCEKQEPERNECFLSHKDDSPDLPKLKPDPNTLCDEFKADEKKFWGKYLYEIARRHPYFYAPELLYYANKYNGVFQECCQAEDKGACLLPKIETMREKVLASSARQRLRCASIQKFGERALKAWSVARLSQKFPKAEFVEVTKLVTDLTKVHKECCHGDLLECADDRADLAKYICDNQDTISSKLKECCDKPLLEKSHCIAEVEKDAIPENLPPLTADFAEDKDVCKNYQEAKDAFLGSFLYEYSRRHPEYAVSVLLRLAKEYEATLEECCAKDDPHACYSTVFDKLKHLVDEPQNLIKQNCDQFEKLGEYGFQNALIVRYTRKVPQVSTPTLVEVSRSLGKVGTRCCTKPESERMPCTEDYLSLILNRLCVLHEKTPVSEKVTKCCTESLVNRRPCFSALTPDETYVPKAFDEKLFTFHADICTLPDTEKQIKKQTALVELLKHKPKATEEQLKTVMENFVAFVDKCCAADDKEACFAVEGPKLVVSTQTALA

binding result (BSA [1]): no binding (tested: 1.6ng/mL〜100μg/mL)
fold higher inflection-point concentration against Fv型抗体 [2]: ~7 倍
B1: Fv型抗LOX−1抗体−ApoB断片融合タンパク質 Fv−B4 (other)
chain: EVKLLESGGGLVQPGGSLKLSCAVSGFDFSRYWMSWVRQAPGKGLEWIGEINPDSSTINFTPSLKDKFIVSRDNAKNTLYLQMSKVRSEDTALYYCARNDVLLGAMDYWGQGTSVTVSSGGGGSGGGGSGGGGSDVLMTQTPLSLPVSLGDQASISCRSSQTIVHSNGKTYLEWYLQKPGQSPKLLIYKVSNRFSGVPDRFSGSGSGTDFTLKISRVEAEDLGVYYCFQGSHVPLTFGAGTKLELKGPQMSASVHLDSKKKQHLFVKEVKIDGQFRVSSFYAKGTYGLSCQRDPNTGRLNGESNLRFNSSYLQGTNQITGRYEDGTLSLTSTSDLQS
notes: Fusion of scFv (C-terminus) to ApoB fragment (N-terminus) through a linker; FreeStyle 293, His-tag purified; not shown: C-terminal V5 and 6xHis tag from the pEF6/V5/His vector

binding result (BSA [1]): no binding (tested: 1.6ng/mL〜100μg/mL)
fold higher inflection-point concentration against Fv型抗体 [2]: ~27 倍
B2: Fv型抗LOX−1抗体−ApoB断片融合タンパク質 Fv−B2 (other)
chain: EVKLLESGGGLVQPGGSLKLSCAVSGFDFSRYWMSWVRQAPGKGLEWIGEINPDSSTINFTPSLKDKFIVSRDNAKNTLYLQMSKVRSEDTALYYCARNDVLLGAMDYWGQGTSVTVSSGGGGSGGGGSGGGGSDVLMTQTPLSLPVSLGDQASISCRSSQTIVHSNGKTYLEWYLQKPGQSPKLLIYKVSNRFSGVPDRFSGSGSGTDFTLKISRVEAEDLGVYYCFQGSHVPLTFGAGTKLELKREIFNMARDQRSRATLYALSHAVNNYHKTNPTGTQELLDIANYLMEQIQDDCTGDEDYTYLILRVIGNMGQTMEQLTPELKSSILKCVQSTKPSLMIQKAAIQALRKMEPKDKDQEVLLQTFLDDASPGDKRLAAYLMLMRSPSQADINKIVQILPWEQNEQVKNFVASH
notes: as for B1

binding result (BSA [1]): no binding (tested: 1.6ng/mL〜100μg/mL)
B3: Fv型抗LOX−1抗体−ApoB断片融合タンパク質 Fv−B1 (other)
chain: EVKLLESGGGLVQPGGSLKLSCAVSGFDFSRYWMSWVRQAPGKGLEWIGEINPDSSTINFTPSLKDKFIVSRDNAKNTLYLQMSKVRSEDTALYYCARNDVLLGAMDYWGQGTSVTVSSGGGGSGGGGSGGGGSDVLMTQTPLSLPVSLGDQASISCRSSQTIVHSNGKTYLEWYLQKPGQSPKLLIYKVSNRFSGVPDRFSGSGSGTDFTLKISRVEAEDLGVYYCFQGSHVPLTFGAGTKLELKEEEMLENVSLVCPKDATRFKHLRKYTYNYEAESSSGVPGTADSRSATRINCKVELEVPQLCSFILKTSQCTLKEVYGFNPEGKALLKKTKNSEEFAAAMSRYELKLAIPEGKQVFLYPEKDEPTYILNIKRGIISALLVPPETEEAKQVLFLDTVYGNCSTHFTVKTRKGNVATEISTERDLGQCDRFKP
notes: as for B1

binding result (BSA [1]): no binding (tested: 1.6ng/mL〜100μg/mL)
B4: Fv型抗LOX−1抗体−ApoB断片融合タンパク質 Fv−B3 (other)
chain: EVKLLESGGGLVQPGGSLKLSCAVSGFDFSRYWMSWVRQAPGKGLEWIGEINPDSSTINFTPSLKDKFIVSRDNAKNTLYLQMSKVRSEDTALYYCARNDVLLGAMDYWGQGTSVTVSSGGGGSGGGGSGGGGSDVLMTQTPLSLPVSLGDQASISCRSSQTIVHSNGKTYLEWYLQKPGQSPKLLIYKVSNRFSGVPDRFSGSGSGTDFTLKISRVEAEDLGVYYCFQGSHVPLTFGAGTKLELKTSGAYSNASSTDSASYYPLTGDTRLELELRPTGEIEQYSVSATYELQREDRALVDTLKFVTQAEGAKQTEATMTFKYNRQSMTLSSE
notes: as for B1

binding result (BSA [3]): no binding (tested: 抗体濃度2ng/mL〜100μg/mL)
binding result [4]: binds
B5: マウス抗LOX−1モノクローナル抗体#10−1 (antibody, V domains shown)
VH: EVKLLESGGGLVQPGGSLKLSCAVSGFDFSRYWMSWVRQAPGKGLEWIGEINPDSSTINFTPSLKDKFIVSRDNAKNTLYLQMSKVRSEDTALYYCARNDVLLGAMDYWGQGTSVTVSS
VL: DVLMTQTPLSLPVSLGDQASISCRSSQTIVHSNGKTYLEWYLQKPGQSPKLLIYKVSNRFSGVPDRFSGSGSGTDFTLKISRVEAEDLGVYYCFQGSHVPLTFGAGTKLELK
notes: also called 抗LOX−1抗体#10−1; マウス抗LOX−1抗体#10−1のIgG型

binding result (BSA [1]): no binding (tested: 抗体濃度2ng/mL〜100μg/mL)
B6: Fv型抗LOX−1抗体 (scFv)
scFv: EVKLLESGGGLVQPGGSLKLSCAVSGFDFSRYWMSWVRQAPGKGLEWIGEINPDSSTINFTPSLKDKFIVSRDNAKNTLYLQMSKVRSEDTALYYCARNDVLLGAMDYWGQGTSVTVSSGGGGSGGGGSGGGGSDVLMTQTPLSLPVSLGDQASISCRSSQTIVHSNGKTYLEWYLQKPGQSPKLLIYKVSNRFSGVPDRFSGSGSGTDFTLKISRVEAEDLGVYYCFQGSHVPLTFGAGTKLELK
notes: VH gene was amplified with the #10-1 heavy chain secretion signal; Expressed in FreeStyle 293, purified by His tag; also called Fv型抗体; Fv; not shown: C-terminal V5 and 6xHis tag from the pEF6/V5/His vector
